What all share (details): modification not given
Test [1] addresses Melanocortin receptor 1 (Homo sapiens), Q01726. Description: 125I-NDP-α-MSH competition binding (membrane filtration).
The target of test [2] is Melanocortin receptor 5 (Homo sapiens), P33032. Description: competition.
Test [3] deals with Melanocortin receptor 3 (Homo sapiens), P41968. Briefly: competition.
Test [4] concerns the target Melanocortin receptor 4 (Homo sapiens), P32245. Briefly: competition.

One molecule from paper PMC4604100, “Melanocortin agonists stimulate lipolysis in human adipose tissue explants but not in adipocytes” (BMC Research Notes, 2015) can be followed below.

The Ki is a measure of affinity in units of concentration, obtained from inhibition or displacement.

Sequence of Melanocortin receptor 4 (Homo sapiens), P32245 (P32245 whole entry): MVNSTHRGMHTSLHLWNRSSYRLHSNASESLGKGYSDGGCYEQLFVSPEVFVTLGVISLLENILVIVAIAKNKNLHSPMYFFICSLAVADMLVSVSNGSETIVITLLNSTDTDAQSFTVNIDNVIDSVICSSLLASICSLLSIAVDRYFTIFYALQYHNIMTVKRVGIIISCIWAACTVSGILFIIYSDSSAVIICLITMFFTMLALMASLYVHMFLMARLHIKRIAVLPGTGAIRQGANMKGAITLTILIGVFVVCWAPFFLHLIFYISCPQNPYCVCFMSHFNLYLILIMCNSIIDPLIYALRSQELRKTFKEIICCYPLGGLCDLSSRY
Sequence of Melanocortin receptor 5 (Homo sapiens), P33032 (P33032 whole entry): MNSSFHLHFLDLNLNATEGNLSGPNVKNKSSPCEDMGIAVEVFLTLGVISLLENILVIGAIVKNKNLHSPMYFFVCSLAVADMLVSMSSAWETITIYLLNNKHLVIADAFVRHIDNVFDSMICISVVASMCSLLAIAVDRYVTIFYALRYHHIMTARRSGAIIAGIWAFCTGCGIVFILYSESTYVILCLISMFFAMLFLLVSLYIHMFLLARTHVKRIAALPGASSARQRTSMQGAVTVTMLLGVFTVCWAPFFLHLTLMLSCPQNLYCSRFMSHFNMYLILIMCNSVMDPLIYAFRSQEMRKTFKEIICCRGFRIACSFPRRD
Sequence of Melanocortin receptor 1 (Homo sapiens), Q01726 (Q01726 whole entry): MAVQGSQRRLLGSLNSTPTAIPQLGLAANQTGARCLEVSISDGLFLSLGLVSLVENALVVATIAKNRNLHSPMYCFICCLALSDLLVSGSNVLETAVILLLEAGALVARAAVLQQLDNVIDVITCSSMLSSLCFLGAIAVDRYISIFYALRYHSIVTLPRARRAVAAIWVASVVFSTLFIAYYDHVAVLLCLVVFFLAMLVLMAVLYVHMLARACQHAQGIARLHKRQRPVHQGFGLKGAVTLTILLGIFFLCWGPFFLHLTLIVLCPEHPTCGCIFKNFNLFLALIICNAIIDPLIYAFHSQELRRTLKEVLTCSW
Sequence of Melanocortin receptor 3 (Homo sapiens), P41968 (P41968 whole entry): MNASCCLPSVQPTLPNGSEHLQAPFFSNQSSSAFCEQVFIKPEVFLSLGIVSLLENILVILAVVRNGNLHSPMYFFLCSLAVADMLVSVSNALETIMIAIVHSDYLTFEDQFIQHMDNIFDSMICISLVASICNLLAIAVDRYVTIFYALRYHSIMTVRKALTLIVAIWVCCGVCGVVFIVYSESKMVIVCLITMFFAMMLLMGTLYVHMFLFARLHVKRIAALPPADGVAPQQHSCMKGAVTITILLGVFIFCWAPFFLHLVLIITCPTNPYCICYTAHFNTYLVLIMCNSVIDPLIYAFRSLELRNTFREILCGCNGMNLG

As for SYSMEHFRWGKPVGKKRRPVKVYPNGAEDESAEAFPLEF [ACTH, P01189], the Ki in test [1] was 0.09 nM; in test [2], 46 nM; in test [3], 11.1 nM; in test [4], 1.2 nM.
